# Source: paper PMC10611921, “Assessing the dynamics and macromolecular interactions of the intrinsically disordered protein YY1” (Bioscience Reports, 2023)
# B1: AAV P5 DNA (dsDNA)
# DNA 1: AGGGTCTCCATTTTGAAGCG
# DNA 2: CGCTTCAAAATGGAGACCCT
# Biological target: YY1;FOXP2 FHD (human?;human?, UniProt P25490;O15409 1-414;504-594, |)
# Assay: EMSA; FOXP2 FHD 2.5-10 uM added; large complex more intense and slightly shifted; simultaneous binding suggested; Anisotropy: 10 mM HEPES pH 7.5, 100 mM NaCl, 20 C; EMSA: 0.5 uM DNA, 20% (v/v) of binding buffer (10 mM HEPES pH 7.5, 1 mM MgCl2, 100 mM KCl, 10% glycerol, 0.1)
# Conditions: protein: recombinant;recombinant; tags: N-terminal His6;His6 removed with thrombin
# YY1;FOXP2 FHD, sequence (P25490 whole entry, chain 1 of 2): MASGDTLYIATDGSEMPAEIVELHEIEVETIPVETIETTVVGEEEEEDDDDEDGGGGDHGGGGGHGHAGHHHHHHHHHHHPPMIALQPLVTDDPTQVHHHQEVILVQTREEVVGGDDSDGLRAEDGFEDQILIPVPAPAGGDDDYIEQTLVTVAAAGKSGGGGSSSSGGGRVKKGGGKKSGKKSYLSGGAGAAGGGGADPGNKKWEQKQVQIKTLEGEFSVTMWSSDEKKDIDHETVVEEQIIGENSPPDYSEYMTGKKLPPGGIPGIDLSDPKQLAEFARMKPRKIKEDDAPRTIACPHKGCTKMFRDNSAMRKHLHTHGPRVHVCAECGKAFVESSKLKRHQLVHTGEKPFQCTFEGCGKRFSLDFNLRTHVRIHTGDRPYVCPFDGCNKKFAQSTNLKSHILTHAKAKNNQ
# YY1;FOXP2 FHD, sequence (O15409 504-594, chain 2 of 2): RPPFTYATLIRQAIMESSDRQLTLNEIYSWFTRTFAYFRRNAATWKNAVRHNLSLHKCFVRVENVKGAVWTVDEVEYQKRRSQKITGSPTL
binder,measurement,value
B1,binding result,binds
